Source: PMC3535264

Experiments:
[1] = target: mouse Nap1 (mNap1) single-cysteine mutant labeled with Alexa 546-C5-maleimide (mouse) (UniProt P28656); assay: other fluorescence titration
[2] = target: tetrasome (DNA-(H3-H4)2 tetramer complex) (Xenopus laevis) (UniProt P84233); assay: FRET or BRET

Substance | Kd [1] [pM] | Kd [2] [pM]
uH2A containing histone dimer (uH2A-H2B) (from UniProt P0CG48 1-76; P02281 1-126) (complex) | 500 | 
uH2B containing histone dimer (H2A-uH2B) (from UniProt P06897 1-130; P0CG48 1-76) (complex) | 400 | 
H2A-H2B_(A488) histone dimer (from UniProt P06897 1-130) (complex) |  | 800

Second part, the substance after the results:

Kd [1] [pM] | Kd [2] [pM] | Substance
800 |  | unmodified H2A-H2B histone dimer (from UniProt P06897 1-130; P02281 1-126) (complex)
 | 700 | H2A_(A488)-H2B histone dimer (from UniProt P02281 1-126) (complex)
